Data as given in paper PMC4374960 (2015).

B1: CarDNt, the 179-residue N-terminal domain of Myxococcus xanthus CarD (in pKT25) [Myxococcus xanthus] / Mxβ_(19–148), M. xanthus RNA polymerase β subunit fragment spanning residues 19 to 148 (in pUT18C) [Myxococcus xanthus] (parent complex)
chain 1: MPEGSASLQLAVGDRVVYPNQGVCRVSAIDVKEVAGQKLTFVTMRREEDGAVVMVPEGKVLAIGVRKVASAEDVEAIFTFLRSDSDKADLDWKQRARTNLDRMTQGGIMGLAEVVKGLQVLSELRPLPTKERELYDNARHLLVTEVAAALGTAEVNAEDAIDIVLFPPGRERPKRTAAE
chain 2: AKIIDIPNLINIQKQSYEKFLQADIAADKREDLGLQGVFKSVFPIRDFNETSSLEFVSYHLERPKYDVDECHQRGMTYSAPIKVVVRLVVWDKDEETGAQSIRDVKEQEVYFGEIPLMTQNGTFIINGTE

Variants of: B1
Assay: BACTH analysis (β-Gal activity); CarDNt mutants in pKT25; Mxβ19–148 in pUT18C; mean and standard error of three independent experiments; parent: 2.7e+03; read off a plot

response | Variant
~130 | chain 1 MPEGSASLQLAVGDRVVYPNQGVCRVSAIDVKEVAGQKLTFVTMRREEDGAVVAVPEGKVLAIGVRKVASAEDVEAIFTFLRSDSDKADLDWKQRARTNLDRMTQGGIMGLAEVVKGLQVLSELRPLPTKERELYDNARHLLVTEVAAALGTAEVNAEDAIDIVLFPPGRERPKRTAAE
~130 | chain 1 MPEGSASLQLAVGDRVVYPNQGVCRVSAIDVKEVAGQKLTAVTMRREEDGAVVMVPEGKVLAIGVRKVASAEDVEAIFTFLRSDSDKADLDWKQRARTNLDRMTQGGIMGLAEVVKGLQVLSELRPLPTKERELYDNARHLLVTEVAAALGTAEVNAEDAIDIVLFPPGRERPKRTAAE
~230 | chain 1 MPEGSASLQLAVGDRVVYPNQGVCRVSAIDVKEVAGQKLTFVTMRREEDGAVVMVAEGKVLAIGVRKVASAEDVEAIFTFLRSDSDKADLDWKQRARTNLDRMTQGGIMGLAEVVKGLQVLSELRPLPTKERELYDNARHLLVTEVAAALGTAEVNAEDAIDIVLFPPGRERPKRTAAE

Variants of: B1
Assay: BACTH analysis (β-Gal activity); Mxβ19–148 mutants in pUT18C; CarDNt in pKT25; mean and standard error of three independent experiments; parent: 2.6e+03; read off a plot

response | Variant
~610 | chain 2 AKIIDIPNLINIQKQSYEKFLQADIAADKREDLGLQGVFKSVFPIRDFNETSSLEFVSYHLERPKYDVDECHQRGMTYSAPIKVVVRLVVWDKDEETGAQSIRDAKEQEVYFGEIPLMTQNGTFIINGTE
~2100 | chain 2 AKIIDIPNLINIQKQSYEKFLQADIAADKREDLGLQGVFKSVFPIRDFNETSSLEFVSYHLERPKYDVDECHQRGMTYSAPIKVVVRLVVWDKDEETGAQSIRDVAEQEVYFGEIPLMTQNGTFIINGTE
~1800 | chain 2 AKIIDIPNLINIQKQSYEKFLQADIAADKREDLGLQGVFKSVFPIRDFNETSSLEFVSYHLERPKYDVDECHQRGMTYSAPIKVVVRLVVWDKDEETGAQSIRAVKEQEVYFGEIPLMTQNGTFIINGTE
~90 | chain 2 AKIIDIPNLINIQKQSYEKFLQADIAADKREDLGLQGVFKSVFPIRDFNETSSLEFVSYHLERPKYDVDECHQRGMTYSAPIKVVVRLVVWDKDEETGAQSIRDVKAQEVYFGEIPLMTQNGTFIINGTE
